Sequences and labels used below:
B1: CPEB3 Ribozyme (parent)
chain: UAACAGGGGGCCACAGCAGAAGCGUUCACGUCGCAGCCCCUGUCAGAUUCUGGUGAAUCUGCGAAUUCUGCUGUAUAUCUC

In the data set the parent is B1. The data set can be described thus: self-cleavage, relative activity (ratio to wild type); higher = more cleavage; in vitro, sequencing. The essentials:
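CPEB3 self-cleaving ribozyme mutant libraries were made by rounds of error-prone PCR, barcoded, and transcribed in vitro with T7 RNA polymerase for 5 hours at 37°C. Cleavage occurred during transcription and a 15 min DNase I step before EDTA stop. RNAs were reverse transcribed with template switching and Illumina-sequenced, with DNA sequencing mapping barcodes to variants. Relative activity is the variant's cleaved/total read fraction divided by wild type's (minimum 5 reads), averaged across three batches.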
On to A20U U41G, for which the self-cleavage was 0.23.
The same measure for G33C C38U: 0.12; for C39A A64U: 0.22; for U25G U74C: 0.52.
The same measure for A3U G70U: 0.19.
The same measure for A3U G70A: 0.63.
As for U41C C50G, the self-cleavage turned out to be 0.96.
The same measure for G33A A65C: 0.11; for A64G U78G: 1.11.
Take C12A A56U: the self-cleavage amounted to 0.81.
For U48C U72C, the self-cleavage was 0.7.
The same measure for G53A U69C: 0.69; for G10C U51C: 0.22.
With A21G U69G, the self-cleavage was 0.33.
The same measure for C23G U69A: 0.12.
As to C34U U74C, the self-cleavage came out at 0.84.
For G8U G53A, the self-cleavage came to 0.2.
Under C37A U60A stands 0.14.
Under G8A U51A stands 0.24; under G8A U51G, 0.09.
The same measure for A5U A35U: 0.63; for A2U U43A: 1.05.
Take U43A G63A: the self-cleavage is 1.13.
Under A20C A45U stands 0.2; under G7U U25C, 0.2; under G7C U60C, 0.2.
Under A56U C62U stands 0.21.
For A18G G55A, the self-cleavage is 0.47.
The same measure for G10C U41C: 0.1.
Under A21U U54C stands 0.29; under A35U U74A, 0.89; under C38A A75U, 0.39.
Under A13U A47C stands 0.76.
As for U31A U43C, the self-cleavage stood at 0.37.
Under G33A G63A stands 0.14; under U60C C79U, 0.72.
Under C29A U60A stands 0.11.
Under C17G A35G stands 1.04; under C38U U72C, 1.01; under A64U U67A, 0.29.
Turning to U54G U76C, the self-cleavage turned out to be 0.98.
Under C17G A65U stands 0.19; under U31A C59A, 0.17.
The same measure for G52A A65G: 0.53.
Under G22C U67A stands 0.16.
G7U G55A: the self-cleavage worked out at 0.08.
The same measure for U31G A77G: 0.59.
Under C40A A64G stands 0.12; under A45G G52U, 0.94; under A28U A77G, 0.8.
Under A2U U48C stands 0.62; under G63C U67A, 0.25.
Take A56U A57U: the self-cleavage was determined as 0.59.
Take G52U A56G: the self-cleavage amounted to 1.14.
The same measure for U43C U76C: 0.73.
As for C14A G70U, the self-cleavage was determined as 0.22.
The same measure for G61C U74A: 0.88; for U26A U51C: 0.84; for C11A U66C: 0.12.
Under G6A G53A stands 0.34; under A35G C62A, 0.52.
The same measure for A21G C44U: 0.26; for G19U U43C: 0.1; for G55A A64G: 0.61.
As for C17U C34A, the self-cleavage worked out at 0.16.
The same measure for A18G U76A: 0.73; for A20C U51A: 0.32.
As for C62U U66A, the self-cleavage came to 0.18.
The same measure for C62U U66C: 0.26; for U43C U49A: 0.26; for G70A U80C: 0.45.
Under C12U G70A stands 1.06; under A45G A75U, 0.91.
Under A20G A64G stands 0.65; under C27A, 0.3.
Consider G22A C68G, for which the self-cleavage amounted to 0.11.
As to A15U C81A, the self-cleavage is 0.32.
Under C11U U51A stands 0.42.
Regarding A45U A56G, the self-cleavage is 0.27.
The same measure for C29A A65U: 0.14.
Under C29A A65G stands 0.26; under A5U U54A, 1.1; under C12A U54A, 1.1.
The same measure for U26C A65C: 0.28; for A13U C38G: 0.41.
Take G19C: the self-cleavage is 0.29.
The same measure for U54C G63A: 0.73; for C17A A64G: 0.24; for C27A U72C: 0.19.
Under C23A U72A stands 0.08.
The same measure for U25A A77U: 0.23; for A18U A56C: 0.21.
U41A U76C: the self-cleavage worked out at 0.27.
The same measure for A28G C62G: 0.21.
On to U1C A3U, for which the self-cleavage is 0.83.
Under A2U G52C stands 1.04; under A21U A28U, 0.23.
The same measure for U43G C62G: 0.43; for C12A U41C: 0.99.
The same measure for G10U A65G: 0.19; for U1A C68A: 0.41; for C14U A20G: 1.19.
Take C11A C81U: the self-cleavage turned out to be 0.52.
On to C29A, for which the self-cleavage was found to be 0.44.
As for A18U C40G, the self-cleavage is 0.18.
The same measure for C14U G63A: 1.26.
Under A15G A28C stands 0.53; under U43C G53C, 0.88; under G6A C40U, 0.33.
The same measure for A21C U60G: 0.15.
A21C U60A: the self-cleavage was 0.36.
Under C32A A75C stands 0.56; under U48C G61A, 0.33; under C4A A18G, 1.04.
As to A75G, the self-cleavage came out at 1.01.
Take G8U A77U: the self-cleavage turned out to be 0.14.
The same measure for A21G U49C: 0.27; for G6A G55U: 0.4; for G24C A28U: 0.28.
Consider U72C A77G, for which the self-cleavage was 1.18.
The same measure for G33A A64U: 0.28.
Under U41G C44A stands 0.13; under G22A U60C, 0.28.
On to A47G U58C, for which the self-cleavage was determined as 1.1.
Under U51C U76A stands 1.21.
Under G19U A47G stands 0.22.
The same measure for U58A U72A: 0.38.
For C17A U60C, the self-cleavage was 0.18.
The same measure for U54G C79A: 1.18; for A35U U69G: 0.26; for C32U A35G: 0.18.
Under A3U A35U stands 0.77; under C50G U72A, 0.58.
The same measure for A47U A64U: 0.26.
As for A21G A56U, the self-cleavage is 0.41.
Under C40U U66C stands 0.33.
The same measure for C59A U67C: 0.16.
For G19U U25A, the self-cleavage came to 0.19.
For the variant G24A C27A, the self-cleavage was 0.18.
Consider A15G C32U, for which the self-cleavage turned out to be 0.19.
The same measure for G6A G9A: 0.25; for U51G U69C: 0.62; for U1C G9C: 0.39.
Under A18U G30A stands 0.15; under G10A A21C, 0.15.
Under G9U C37U stands 0.07; under G24A G42A, 0.12.
Take A18C: the self-cleavage stood at 0.41.
The same measure for C38A U72C: 0.53; for A35U U66G: 0.13; for C38U G70U: 0.38.
Consider G30A A77U, for which the self-cleavage stood at 0.33.
A47G C81U: the self-cleavage was 1.04.
Under A3U A64G stands 1.06.
The same measure for C11G A13G: 0.32.
Under A56U A65U stands 0.21; under A3G G30A, 0.44.
Turning to G53C U67G, the self-cleavage stood at 0.54.
The same measure for C71A U78C: 0.49; for C39A U67A: 0.34; for A13C A15U: 1.
The same measure for U48C U69A: 0.37; for U43A G61C: 0.36.
Under C29G G55A stands 0.16; under A28C G61A, 0.48; under G16C C23A, 0.5.
For the variant A64G U72G, the self-cleavage was determined as 0.87.

The values above are taken from the RNAGym collection of RNA variant scans (doi:10.1093/nar/gkz1192).
